What all share (assay): cell-based or functional assay
In assay [1] the target is HIV-1 envelope glycoprotein of pseudovirus CNE52 (HIV-1).
In assay [2] the target is HIV-1 envelope glycoprotein of pseudovirus RHPA4259.7 (HIV-1).
The target of assay [3] is HIV-1 envelope glycoprotein of pseudovirus 0260.v5.c36 (HIV-1).
In assay [4] the target is HIV-1 envelope glycoprotein of pseudovirus BB1012-11.TC21 (HIV-1).
For assay [5], the target named is HIV-1 envelope glycoprotein of pseudovirus DU172.17 (HIV-1).
In assay [6] the target is HIV-1 envelope glycoprotein of pseudovirus SC422661.8 (HIV-1).

B1: MS-97 (antibody)
VH: not shown
VL: DFVLTQSPLSLSVTPGEPASISCKSSHSLIHGDRNNYLAWYVQKPGRSPQLLIYLASSRASGVPDRFSGSGSDKDFTLKISRVETEDVGTYYCMQGRESPWTFGQGTKVDIKRTVAAPSVFIFPPSDEQLKSGTASVVCLLNNFYPREAKVQWKVDNALQSGNSQESVTEQDSKDSTYSLSSTLTLSKADYEKHKVYACEVTHQGLSSPVTKSFNRGEC
For the molecule B1, the “IC50 (neutralization in TZM.bl cells)” value in assay [1] came to 0.214 µg/mL; in assay [2], 0.183 µg/mL; in assay [3] it was 0.028 µg/mL; in assay [4] it was 0.04 µg/mL; in assay [5], 2.21 µg/mL; in assay [6], 0.311 µg/mL. For the same molecule, the “IC80 (neutralization in TZM.bl cells)” value turned out to be 1.62 µg/mL in assay [1]; 0.824 µg/mL in assay [2]; 0.096 µg/mL in assay [3]; 0.13 µg/mL in assay [4]; 7.54 µg/mL in assay [5]; 2.09 µg/mL in assay [6].

B2: MS-102 (antibody)
VH: not shown
VL: DFVLTQSPHSLSVTPGESASISCKSSHSLIHGDRNNYLAWYVQKPGRSPQLLIYLASSRASGVPDRFSGSGSGKDFTLKISRVEAEDVGTYYCMQGRESPWTFGQGTKVDIKRTVAAPSVFIFPPSDEQLKSGTASVVCLLNNFYPREAKVQWKVDNALQSGNSQESVTEQDSKDSTYSLSSTLTLSKADYEKHKVYACEVTHQGLSSPVTKSFNRGEC
Regarding B2, the “IC50 (neutralization in TZM.bl cells)” value in assay [1] was 0.211 µg/mL; in assay [2], 0.178 µg/mL; in assay [3], 0.019 µg/mL; in assay [4], 0.031 µg/mL; in assay [5] it was 1.16 µg/mL; in assay [6], 0.17 µg/mL. In addition, the “IC80 (neutralization in TZM.bl cells)” value was 1.87 µg/mL in assay [1]; 0.649 µg/mL in assay [2]; 0.053 µg/mL in assay [3]; 0.1 µg/mL in assay [4]; 5.91 µg/mL in assay [5]; 1.21 µg/mL in assay [6].

B3: MS-104 (antibody)
VH: not shown
VL: DIVLTQSPLSLSVTPGESASISCKSSHSLIHGDRNNYLAWYVQKPGRSPQLLIYLASSRASGVPDRFSGSGSGKDFTLKISRVETEDVGTYYCMQGRESPWTFGQGTKVDIKRTVAAPSVFIFPPSDEQLKSGTASVVCLLNNFYPREAKVQWKVDNALQSGNSQESVTEQDSKDSTYSLSSTLTLSKADYEKHKVYACEVTHQGLSSPVTKSFNRGEC
B3: the “IC50 (neutralization in TZM.bl cells)” value in assay [1] was 0.509 µg/mL; in assay [2], 0.227 µg/mL; in assay [3], 0.024 µg/mL; in assay [4], 0.032 µg/mL; in assay [5], 2.58 µg/mL; in assay [6], 0.277 µg/mL. Moreover, the “IC80 (neutralization in TZM.bl cells)” value in assay [1] was 6.48 µg/mL; in assay [2] it was 1.02 µg/mL; in assay [3], 0.084 µg/mL; in assay [4], 0.137 µg/mL; in assay [5], 9.41 µg/mL; in assay [6], 1.52 µg/mL.

B4: MS-103 (antibody)
VH: not shown
VL: DIVLTQSPLSLSVTPGEPASISCKSSHSLIHGDRNNYLAWYVQKPGRSPQLLIYLASSRASGVPDRFSGSGSDKDFTLKISRVETEDVGTYYCMQGRESPWTFGQGTKVDIKRTVAAPSVFIFPPSDEQLKSGTASVVCLLNNFYPREAKVQWKVDNALQSGNSQESVTEQDSKDSTYSLSSTLTLSKADYEKHKVYACEVTHQGLSSPVTKSFNRGEC
As to B4, the “IC50 (neutralization in TZM.bl cells)” value in assay [1] came out at 0.432 µg/mL; in assay [2] it was 0.29 µg/mL; in assay [3] it was 0.03 µg/mL; in assay [4], 0.046 µg/mL; in assay [5], 2.68 µg/mL; in assay [6], 0.408 µg/mL. For the same molecule, the “IC80 (neutralization in TZM.bl cells)” value in assay [1] came out at 4.18 µg/mL; in assay [2], 1.33 µg/mL; in assay [3], 0.104 µg/mL; in assay [4] it was 0.155 µg/mL; in assay [5], 10.2 µg/mL; in assay [6], 1.99 µg/mL.

B5: MS-99 (antibody)
VH: not shown
VL: DFVLTQSPLSLSVTPGESASISCKSSHSLIHGDRNNYLAWYVQKPGRSPQLLIYLASSRASGVPDRFSGSGSDKDFTLKISRVEAEDVGTYYCMQGRESPWTFGQGTKVDIKRTVAAPSVFIFPPSDEQLKSGTASVVCLLNNFYPREAKVQWKVDNALQSGNSQESVTEQDSKDSTYSLSSTLTLSKADYEKHKVYACEVTHQGLSSPVTKSFNRGEC
For B5, the “IC50 (neutralization in TZM.bl cells)” value amounted to 0.219 µg/mL in assay [1]; 0.257 µg/mL in assay [2]; 0.024 µg/mL in assay [3]; 0.032 µg/mL in assay [4]; 1.95 µg/mL in assay [5]; 0.294 µg/mL in assay [6]. For the same molecule, the “IC80 (neutralization in TZM.bl cells)” value in assay [1] is 1.8 µg/mL; in assay [2], 0.718 µg/mL; in assay [3] it was 0.087 µg/mL; in assay [4], 0.084 µg/mL; in assay [5], 7.14 µg/mL; in assay [6], 1.46 µg/mL.

B6: MS-98 (antibody)
VH: not shown
VL: DFVLTQSPLSLSVTPGESASISCKSSHSLIHGDRNNYLAWYVQKPGRSPQLLIYLASSRASGVPDRFSGSGSGKDFTLKISRVETEDVGTYYCMQGRESPWTFGQGTKVDIKRTVAAPSVFIFPPSDEQLKSGTASVVCLLNNFYPREAKVQWKVDNALQSGNSQESVTEQDSKDSTYSLSSTLTLSKADYEKHKVYACEVTHQGLSSPVTKSFNRGEC
On to B6, for which the “IC50 (neutralization in TZM.bl cells)” value was 0.237 µg/mL in assay [1]; 0.146 µg/mL in assay [2]; 0.019 µg/mL in assay [3]; 0.025 µg/mL in assay [4]; 1.44 µg/mL in assay [5]; 0.301 µg/mL in assay [6]. In addition, the “IC80 (neutralization in TZM.bl cells)” value in assay [1] was 1.91 µg/mL; in assay [2] it was 0.676 µg/mL; in assay [3] it was 0.068 µg/mL; in assay [4] it was 0.114 µg/mL; in assay [5] it was 6.33 µg/mL; in assay [6], 2.14 µg/mL.

B7: MS-100 (antibody)
VH: not shown
VL: DFVLTQSPHSLSVTPGEPASISCKSSHSLIHGDRNNYLAWYVQKPGRSPQLLIYLASSRASGVPDRFSGSGSGKDFTLKISRVETEDVGTYYCMQGRESPWTFGQGTKVDIKRTVAAPSVFIFPPSDEQLKSGTASVVCLLNNFYPREAKVQWKVDNALQSGNSQESVTEQDSKDSTYSLSSTLTLSKADYEKHKVYACEVTHQGLSSPVTKSFNRGEC
For B7, the “IC50 (neutralization in TZM.bl cells)” value in assay [1] was found to be 0.147 µg/mL; in assay [2], 0.142 µg/mL; in assay [3] it was 0.019 µg/mL; in assay [4], 0.029 µg/mL; in assay [5] it was 1.56 µg/mL; in assay [6], 0.184 µg/mL. Besides, the “IC80 (neutralization in TZM.bl cells)” value in assay [1] was determined as 2.02 µg/mL; in assay [2], 0.694 µg/mL; in assay [3], 0.053 µg/mL; in assay [4] it was 0.095 µg/mL; in assay [5], 5.25 µg/mL; in assay [6] it was 1.31 µg/mL.

B8: MS-105 (antibody)
VH: not shown
VL: DIVLTQSPLSLSVTPGESASISCKSSHSLIHGDRNNYLAWYVQKPGRSPQLLIYLASSRASGVPDRFSGSGSDKDFTLKISRVEAEDVGTYYCMQGRESPWTFGQGTKVDIKRTVAAPSVFIFPPSDEQLKSGTASVVCLLNNFYPREAKVQWKVDNALQSGNSQESVTEQDSKDSTYSLSSTLTLSKADYEKHKVYACEVTHQGLSSPVTKSFNRGEC
Turning to B8, the “IC50 (neutralization in TZM.bl cells)” value in assay [1] is 0.441 µg/mL; in assay [2], 0.27 µg/mL; in assay [3], 0.032 µg/mL; in assay [4] it was 0.038 µg/mL; in assay [5], 3.06 µg/mL; in assay [6], 0.44 µg/mL. The “IC80 (neutralization in TZM.bl cells)” value was 5.04 µg/mL in assay [1]; 1.25 µg/mL in assay [2]; 0.11 µg/mL in assay [3]; 0.124 µg/mL in assay [4]; 11.5 µg/mL in assay [5]; 3.51 µg/mL in assay [6].

B9: MS-101 (antibody)
VH: not shown
VL: DFVLTQSPHSLSVTPGEPASISCKSSHSLIHGDRNNYLAWYVQKPGRSPQLLIYLASSRASGVPDRFSGSGSDKDFTLKISRVEAEDVGTYYCMQGRESPWTFGQGTKVDIKRTVAAPSVFIFPPSDEQLKSGTASVVCLLNNFYPREAKVQWKVDNALQSGNSQESVTEQDSKDSTYSLSSTLTLSKADYEKHKVYACEVTHQGLSSPVTKSFNRGEC
On to B9, for which the “IC50 (neutralization in TZM.bl cells)” value in assay [1] was 0.145 µg/mL; in assay [2] it was 0.227 µg/mL; in assay [3] it was 0.025 µg/mL; in assay [4], 0.037 µg/mL; in assay [5], 2.41 µg/mL; in assay [6] it was 0.251 µg/mL. In addition, the “IC80 (neutralization in TZM.bl cells)” value in assay [1] amounted to 1.23 µg/mL; in assay [2] it was 0.816 µg/mL; in assay [3], 0.069 µg/mL; in assay [4], 0.121 µg/mL; in assay [5] it was 6.88 µg/mL; in assay [6], 1.88 µg/mL.

The values above are taken from patent publication US20220025021A1 (BETH ISRAEL DEACONESS MEDICAL CENTER, published 2022).
